One may read the Kd as the equilibrium constant for the complex coming apart. A higher Kd goes with weaker binding.

The values that follow come from paper PMC9478924 (The Journal of Biological Chemistry, 2022).

Common to all, as to experiment: SPR
For orientation: SPR reads the build-up and loss of mass on a sensor chip optically.

The target of one experiment is T1, EVA-4 (UniProt P0C8E9 24-127, biotin on the Avi-tag (Bir-A ligase)).
T1 sequence (looked up): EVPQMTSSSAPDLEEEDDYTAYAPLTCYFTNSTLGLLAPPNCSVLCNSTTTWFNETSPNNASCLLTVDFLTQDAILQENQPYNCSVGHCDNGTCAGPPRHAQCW

The next experiment concerns the target T2, EVA-1 (UniProt P0C8E7 21-114, biotin on the Avi-tag (Bir-A ligase)).
T2 sequence (looked up): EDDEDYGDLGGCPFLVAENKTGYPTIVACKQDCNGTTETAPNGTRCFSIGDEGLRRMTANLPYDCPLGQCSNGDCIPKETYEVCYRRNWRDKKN

Experiment [1] addresses T3, EVA-P974 (UniProt A0A023FDY8 22-118, biotin on the Avi-tag (Bir-A ligase)).
T3 sequence (looked up): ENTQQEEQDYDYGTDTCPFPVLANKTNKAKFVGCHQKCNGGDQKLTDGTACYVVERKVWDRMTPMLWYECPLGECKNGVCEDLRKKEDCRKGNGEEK

Experiment [2] concerns the target T3, EVA-P974. The source holds these as a separate data set.

Like-named read-outs stand apart in the source and are kept apart here.

B1: CCL3 (ligand, human, UniProt P10147 24-92, looked up)
chain: SLAADTPTACCFSYTSRQIPQNFIADYFETSSQCSKPGVIFLTKRSRQVCADPSEEWVQKYVSDLELSA
For the molecule B1, the values for the Kd in the experiment with EVA-4, with EVA-1 and with EVA-P974 [1] were 0.2 nM, 0.21 nM and 0.6 nM, respectively.

B2: CCL8 (ligand, human, UniProt P80075 24-99, looked up)
chain: QPDSVSIPITCCFNVINRKIPIQRLESYTRITNIQCPKEAVIFKTKRGKEVCADPKERWVRDSMKHLDQIFQNLKP
For the molecule B2, the Kd was under 0.1 nM with EVA-P974 [2], 0.4 nM with EVA-4 and 0.03 nM with EVA-P974 [1].

B3: CCL17 (ligand, human, UniProt Q92583 24-94, looked up)
chain: ARGTNVGRECCLEYFKGAIPLRKLKTWYQTSEDCSRDAIVFVTVQGRAICSDPNNKRVKNAVKYLQSLERS
For the molecule B3, the Kd turned out to be 283 nM with EVA-4 and 23 nM with EVA-P974 [1].

B4: CCL23 (ligand, human, UniProt P55773 22-120, looked up)
chain: RVTKDAETEFMMSKLPLENPVLLDRFHATSADCCISYTPRSIPCSLLESYFETNSECSKPGVIFLTKKGRRFCANPSDKQVQVCMRMLKLDTRIKTRKN
In turn, B4 returned a Kd with EVA-4 of 7.4 nM.

B5: CCL13 (ligand)
chain: not shown
In turn, B5 showed a dissociation constant Kd with EVA-P974 [1] of 0.5 nM.

B6: CCL15 (ligand, human, UniProt Q16663 22-113, looked up)
chain: QFTNDAETELMMSKLPLENPVVLNSFHFAADCCTSYISQSIPCSLMKSYFETSSECSKPGVIFLTKKGRQVCAKPSGPGVQDCMKKLKPYSI
In turn, B6 displayed a Kd with EVA-4 of 240 nM.

B7: CCL22 (ligand, human, UniProt O00626 25-93, looked up)
chain: GPYGANMEDSVCCRDYVRYRLPLRVVKHFYWTSDSCPRPGVVLLTFRDKEICADPRVPWVKMILNKLSQ
For B7, the Kd in the experiment with EVA-4 stood at 8.5 nM; in the experiment with EVA-P974 [1], 1.8 nM.

B8: CCL11 (ligand)
chain: not shown
For B8, the values for the Kd with EVA-4 and with EVA-P974 [1] were 20 nM and 0.3 nM, respectively.

B9: CCL5 (ligand, human, UniProt P13501 24-91, looked up)
chain: SPYSSDTTPCCFAYIARPLPRAHIKEYFYTSGKCSNPAVVFVTRKNRQVCANPEKKWVREYINSLEMS
For B9, binding with EVA-4 was characterised by a dissociation constant (Kd) of 6.1 nM.

B10: CCL4 (ligand, human, UniProt P13236 24-92, looked up)
chain: APMGSDPPTACCFSYTARKLPRNFVVDYYETSSLCSQPAVVFQTKRSKQVCADPSESWVQEYVYDLELN
With B10, the Kd with EVA-1 was determined as 60.7 nM; in the experiment with EVA-P974 [1] it was 1.8 nM.

B11: CCL16 (ligand, human, UniProt O15467 24-120, looked up)
chain: QPKVPEWVNTPSTCCLKYYEKVLPRRLVVGYRKALNCHLPAIIFVTKRNREVCTNPNDDWVQEYIKDPNLPLLPTRNLSTVKIITAKNGQPQLLNSQ
As to B11, the Kd with EVA-P974 [2] is under 0.1 nM; in the experiment with EVA-4 it was 4.1 nM; with EVA-P974 [1] it was 0.1 nM.

B12: CCL14 (ligand, human, UniProt Q16627 20-93, looked up)
chain: TKTESSSRGPYHPSECCFTYTTYKIPRQRIMDYYETNSQCSKPGIVFITKRGHSVCTNPSDKWVQDYIKDMKEN
Turning to B12, the Kd was found to be 1.1 nM in the experiment with EVA-4, 92 nM with EVA-1 and 1.8 nM with EVA-P974 [1].

B13: CCL18 (ligand, human, UniProt P55774 21-89, looked up)
chain: AQVGTNKELCCLVYTSWQIPQKFIVDYSETSPQCPKPGVILLTKRGRQICADPNKKWVQKYISDLKLNA
In the case of B13, the results for the Kd in the experiment with EVA-4, with EVA-1 and in the experiment with EVA-P974 [1] were 0.4 nM, 192 nM and 0.6 nM, respectively.

B14: CCL1 (ligand, human, UniProt P22362 24-96, looked up)
chain: KSMQVPFSRCCFSFAEQEIPLRAILCYRNTSSICSNEGLIFKLKRGKEACALDTVGWVQRHRKMLRHCPSKRK
For B14, the values for the Kd with EVA-4 and with EVA-P974 [1] were 376 nM and 15 nM, respectively.

B15: CCL7 (ligand)
chain: not shown
In the case of B15, the Kd was 0.8 nM in the experiment with EVA-4 and 4.4 nM with EVA-P974 [1].

B16: CCL24 (ligand, human, UniProt O00175 27-119, looked up)
chain: VVIPSPCCMFFVSKRIPENRVVSYQLSSRSTCLKAGVIFTTKKGQQFCGDPKQEWVQRYMKNLDAKQKKASPRARAVAVKGPVQRYPGNQTTC
B16: the Kd with EVA-4 was determined as 55 nM.
